# Data reported in patent US20060233808A1 (published 2006).
# B1: Peptabody EGF (designed binder)
# chain: MYSFEDLASHHHHHHGDLGPQMLRELQETNAALQDVRDYLRQLVREITFLKNTVMECDACGMQQTSPPTPPTPSPSTPPTPSPRSNSDSECPLSHDGYCLHDGVCMYIEALDKYACNCVVGYIGERCQYRDLKWWELR
# notes: also called p-EGF; P-EGF
# Biological target: T1, EGF receptor on human A431 cancer cells (human, UniProt P00533 25-1210)
# T1 construct: whole, on cells; also called epidermal growth factor receptor; ErbB1
# Assay: competition assay on A431 cells, Mab425 fixed at 6.67 nM as competitor, Peptabody EGF 0.1 to 200 nM
binder,measurement,value
B1,binding result,binds
